This data set can be described thus: soluble fraction after stress (log2 fold change); higher = more stays soluble; pooled small domains, quantitative proteomics. Particulars: stress: pH 4. Put shortly: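 After pH 4 stress, pooled custom libraries of small protein domains were quantified with high-throughput quantitative proteomics. Aggregation propensity is taken from the fold change in each domain's soluble amount following the acid stress. The scale is log2, where higher values mean more stayed soluble.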

A value given as a limit tells only on which side of the number the result lay.

The record followed here is the domain aggregation screens of Martell et al. (2025).

“HMDIANEQEQIFITAMRNDDFNPILELKMKGYQPSKNVLKSLQPDVSSTTFIAAAKIFQMEGVL”: the “soluble fraction (log2)” value was -1.31. As for “HMDIASNQIQGIKDSVGGDENYSKMVAWALESLPAEEVKAFNDLTETANAPAIKMAVQGLYSQYNNAM”, the “soluble fraction (log2)” value is -0.9. With “HMDIDGVSENGRLILAALDKEALDFDTLAAETGIQESRLRTELTLLEIRKLIMKLPGQRYRLI”, the “soluble fraction (log2)” value turned out to be 0.28. For the sequence “HMDIDNDIIENILVMGVTKAIAINLSNEFERHRIIANIEYAKEKSKNSEIKNISAFTVEAIRQDYANS”, the “soluble fraction (log2)” value was -1.12.

“HMDIEITIPPEAKELDVSKILISGNIITDEQEFLDYLKQNNVAAFKDGNYKLNKNMTTEEIVNQIK”: the “soluble fraction (log2)” value is -1.2. As for “HMDIESREAWVDASGMGVRLDRWLTQLAPEFSRNHLQSLIERGAVRVDGQPALVASRKLRIGQQVAVSLIP”, the figure is -0.0568; as for “HMDIEVEVPNLVGMSLDEAKSIIQSMGLVVGLTIEDPSAKVSDNSVTKQKPTYQTGVKLRSGDMIDIWYAG”, -0.676. As for “HMDIFSSFVAIKNANVRELPTAKSAQVATLSKGSEVTALGKVKGKNWYLVARDGKELGYVFGSLIAEAET”, the figure is 0.143. As to “HMDIINLADNIARLRRRRQITQEELADYLGVTKAAVSKWENRQTMPDILLLPRLAGLFEVTIDELVGY”, the “soluble fraction (log2)” value is -1.72. “HMDIKDRSGVTIDESNEAQQESIIRESWAEQKISGNVDNYIAYLKANGMLLETAKIELAALQEKDASLRE”: the “soluble fraction (log2)” value was -0.78. In the case of “HMDILEVLIKKDLAMELLEQLTERQRTVVYLRYFYQLNQKEIADYLGISQQRVSEILSRAKAVLTAYTKK”, the “soluble fraction (log2)” value is -0.878. In the case of “HMDILPEGNYKVNYDVIDEVGNIVANKNDIVVTEKSIKPLNTILGIDLYEVIHSQTGKYFTINGDNLTN”, the “soluble fraction (log2)” value was -0.328. Consider “HMDINLGIGPLVKKYRTIKGYSIRELARNINVTASMLSQIERDIVNPSINTLKAISVELGVPMYKFFM”, for which the “soluble fraction (log2)” value was -0.217. For the sequence “HMDINLSENLVRLRHAKKLTQEQLADFLGVTKASVSKWETRQSLPDILLLPRLAAFYGVTVDELIGYEP”, the “soluble fraction (log2)” value is ≥ 0.43.

Consider “HMDISKTLGKNPLLIIDNIEYRGKTLDEITAMTGVKRFENIDIYGSEEAMKTYGEKAKDGVIIAYTT”, for which the “soluble fraction (log2)” value is -0.62. Regarding “HMDITGIGIKKRIKAIIDSEDKKNPLSDTQIVEILKNEGLEISRRTVAKYRSDLQIPSSSKRKK”, the “soluble fraction (log2)” value stood at 0.335. With “HMDIVEIYVGEEDGERIDSYLAQELNNVSRSYVQGLIKNQLITVNGNHVKPKHIVKEGEHIIVNIPPPKV”, the “soluble fraction (log2)” value is -0.108. Under “HMDIVENSMPNVVGLELNRAKELMTQLGFTNVRYEPTESSRPENEVVYQSVDKDETLDVSSEIIIQYSSGV” stands -0.535; under “HMDKEKLQEKLLQIFEAEPQKKFQVQDLVKVLDMEGAGQFKFVVQALADLEHNKQIKLSEDDTFSLIVKE”, 0.22. Under “HMDKENVLQLQKDLLRLSVNALEKRYYQFSDILLLKYILPLVPKEISIDDQSRLRSLLSGIN” stands -0.754; under “HMDKEPTHLHTFRLIKEGKSSEEIAEIRNITLGTVNTHLAKLIAVGELTIEQVISKHRLDYVMEAIKNSK”, -0.825; under “HMDKKIVGVNAGKVWQALNEVTEISIVELAEKLNLSVESTALAAGWLAREDQISIERKNGTIELQRKN”, -0.177. With “HMDKNNLLIIYRTNSEGTPYAFSVTPSAKSLDALHKDAKEMLPFLEKSMNNFFSIQIWERAEYLKY”, the “soluble fraction (log2)” value is -0.379. On to “HMDKPGMRLNQFIAHSGISSRREADNLIKAGLVQVNGKIIVEMGFRVMPTDIVKFNNETIAS”, for which the “soluble fraction (log2)” value is 0.378. Take “HMDKPIVFLEDTKAHKSSDLQSPVYMTVPKGTIAFVIAEKGDWSQVYAGRVLDRNLASQWVRRGFS”: the “soluble fraction (log2)” value was found to be 0.191. “HMDKSLDFASIKSVEIATGRKFGWHALKKWSKSNSSEIKTIPDPNFGEVKTYHKDAWLAVYNINLSPILD”: the “soluble fraction (log2)” value was -0.0629.

“HMDKSPMIGTAEYEGVLYWRQTKDNGATWEWITDKNGDKMPVSGPAPAVGIDKDGYWTVNGESTGVLAKD”: the “soluble fraction (log2)” value is -0.0267. For “HMDKVSYALGLGIGRQLTDMGAKDLNIDDFAQAIKDVLAGGEVKLSDAEAQTIVRNFFDEQEKKQRA”, the “soluble fraction (log2)” value is -0.637.

Turning to “HMDLANLQNGQTLPLQRDVEVISIPFGKTISLSEDSVVSIMQAKGSSVSVAYEGRLYLIEGSNLDALGLEP”, the “soluble fraction (log2)” value was -0.888.

For “HMDLANRSLDRGITILESLARNGASSLADLHRDSGIAKSTIRRLLGTLIQHRLVRRSVADGLYRVTIPLPA”, the “soluble fraction (log2)” value is 0.025. Regarding “HMDLDIQNYNLDEILELFKVSYDFDETELKKAHKMYLMTHPDKSNLNPNIFLFFVQAYDILRKLYEFR”, the “soluble fraction (log2)” value is -1.66. As for “HMDLDIRDDIYRANIPNDYKLQQMQNNIDYDKVLTGYYNNRPEANVIANRTLQLANDVYNRD”, the “soluble fraction (log2)” value was -0.296. As to “HMDLDLNIDNYNFDDLLNLFGLKMKFSEDDLKKAKRSVLMTHPDKSGLDKQYFMFFTKAYKMLSQIYYFR”, the “soluble fraction (log2)” value was -0.779. As for “HMDLDPNKPAIPIAYPRVLLNIMAEKGFSRTEVLAGSGLADSVFDKPDHRITPAQFLFILMNSFYLS”, the figure is -0.631; as for “HMDLFLVYQFIRRLATPFTEWKAHELGIIDDKGVQLKKRRDFTTREEKDAYGIFDIMITKLKRLIEKV”, -1.04; as for “HMDLFSAVVHHIVGQQISTKAQATIWKRMRDEFGVVDAAAVLGAGVEKLQSFGMTFRKAEYITDFARKIE”, -0.651.

In the case of “HMDLGLTDDQRLVYGLLSPTVPRSSGELLGMVDFGRSKLSRILKELIELGQVFTVGVGRGLKYKRG”, the “soluble fraction (log2)” value is -0.256. Under “HMDLGTHMRLIVPTGMRVDHIVYESNGKNISVDHDRSISVRWNGEVVSIDVSPLPSRPDFDVLIYMSPK” stands -0.162; under “HMDLLAESLTRREAEVAALAARGLTNRAIAELFGLSVRTAETHLHRAMGKLGANRREDLLLHADRLDPG”, -0.618; under “HMDLLESLSAREREVVHLASRGLVNKLIARELGITERTVKAHLSSAFEKLHIKDRVHLALLVNGI”, -0.48. On to “HMDLLKANNLSQINVDKLTDEEILKYSQQLKQSGLTESQAEQIAIARGMPATEIAKLKQRLISLTNMQ”, for which the “soluble fraction (log2)” value amounted to 0.213. As for “HMDLLVWRVADEDAGERIDKLVVDSLDDVSRTAVQQWIKDGLVTVNGKTVKPNYKAAAGDEVAVSVPEPE”, the figure is -0.514. With “HMDLMKKTLTKEMLLIDFMKQQFPDSSTNKLRKMLSSGRVKINNLITHKAKSQLKLGDIFELANKPHD”, the “soluble fraction (log2)” value was 0.124. Under “HMDLPGIVTETDRQRADLAARIGAAKVEAVLAGGARSVEADEDFDADTRRELHQFLTRMARRAFLEER” stands -0.722; under “HMDLPSSETLKVKLNLAKAYVTIEDFGAARRALDEVLSVSSLVDPDLTIQAKSLLAEIDQRS”, -0.0976. In the case of “HMDLQAAWLQTVRHLLAHTEDVGDRFAEEARRIHYGEEPHRGIRGQATPEERLALREEGIETMSIPV”, the “soluble fraction (log2)” value was -0.204. For the sequence “HMDLQHQLTPRLKRLRLSGILETLEVRNQQAIAEKWSYVEFLTRLAEDEVERRDHKQLTLRLR”, the “soluble fraction (log2)” value is -0.564.

Consider “HMDLSYPFTTVTTDNVNMRRSASSSSVVLERIDKGDSITVLGTSGNYYKVSYNDRTGYVLKQYVDVSAATT”, for which the “soluble fraction (log2)” value was -0.0312.

For the sequence “HMDLTPEEQMDLYRLLDSLPTEERTYLILHYFEERSFPEMAEILSMPEAKLKSRFYRILHRLRAHL”, the “soluble fraction (log2)” value was -1.11. As to “HMDLTSDANLKEAKDQILNLLNDGKRHHVTEINKILLPPVQVQEALRFLIHEETVRVDASFLF”, the “soluble fraction (log2)” value was -0.083. As to “HMDLVESYDLKIIYTSELINLLIDSSRLEEALNLFKDLKDEIDDVENLGFSAKNNLDYMESKLLHLG”, the “soluble fraction (log2)” value is -1.6. With “HMDLYIILGLERSATLSDVRRAYRRLARKYHPGINPGDRNSASVFTRVSEAYQVLSDPEQRRRYDSR”, the “soluble fraction (log2)” value was -0.583.

With “HMDMDRRALLLALINDRYHASVAEFARAINKAPAQVHQWLSGNRALGNAGARDIEIRLNLAQGYFDH”, the “soluble fraction (log2)” value worked out at 0.282. Under “HMDMQMPIMNGLEFLERINLTLDDNFSIIVLTGKIEDKSIEKSFELGINAYLRKPFNIYALLGIVRQN” stands -0.102. Take “HMDMSDFEVVRDMYLTGKVWNAGDIVEAKGITGEVVRKGTNYLSFVDKNGKVHKAWLHEIEL”: the “soluble fraction (log2)” value is -0.968. As to “HMDNAILQELYDYYKEDPSLSQSELIISMLTRIQEAVGYVSKDVQEEVARLAGVNRGYVAAIIKNLPHL”, the “soluble fraction (log2)” value was -0.963. Under “HMDNEYDKVYQAALSKLEGYPRSSITTAVIKDVVAQTIKYFEIKNFGYEDTIINQLQSAFTVKSSS” stands 0.0114; under “HMDNLSESQIKAYSSILSRTHEISDLAENKDYLAFSLWIANILRDPQSVREETAKRVFSALHTNTDFK”, -0.793.

Consider “HMDNMFMPPVNGWDVRQALQKLQNEMGLQVKMEYSPSETITEGYVISYTPIDGMKVEKGDEVTLVISTGPE”, for which the “soluble fraction (log2)” value is -0.675. In the case of “HMDNMTEMQKAVTALIEKSGGSIDNLSVIYDHLKKKYPSFDLKDYGYSRFSSFLRSMENIMVRGNAVTLRS”, the “soluble fraction (log2)” value amounted to 0.0508. For “HMDNPPDRAEIEQMLKDAGLTPEADAMAALSDLARTLDPGDFRQTLEKITLYKLGDSTPIGLDDIAAGAP”, the “soluble fraction (log2)” value is -1.18. As to “HMDNQSIVRINDGDGAWRQRLGEHFGHLPRDRKRGEIVLQVDAADWRWLQTQGYAPRFDAALSAQLQTTL”, the “soluble fraction (log2)” value was -0.147. In the case of “HMDNVLGKSGKVIFVNEEINSYGRAFIPGHGEWNIRTKSDQNIHINDGIKVIERDGITLVVEL”, the “soluble fraction (log2)” value is -1.3. Regarding “HMDNVQLRNFAIKATEASIIYLDQEQRNFFWYNNNKKLMTVPFDENPYSAFAAYLKTDEGSEVYKAIEKKF”, the “soluble fraction (log2)” value is -0.504.

In the case of “HMDNWAALLSEREVQVSRLVANGASNKEIADHLAITERTVKAHLTAVFEKLGVRDRLQLSLRVNGL”, the “soluble fraction (log2)” value was -1.64. As for “HMDPALSPAEQKIWDLLAAGETHIDDLVRASGLPVATVNSALVMMEMKEVISQVAAKTYRRNRRN”, the “soluble fraction (log2)” value is -0.458. For “HMDPEARRRAILNAAIDVIVEKGAAALTHRAVAARAGVSLGSTTKYFSSIEDLRENAMDALVREMD”, the “soluble fraction (log2)” value is -0.756. Under “HMDPEEQIQSREIWEAVERALDGMQEKGRRVVIALLEGQTQLEVSRAAGISQPLISYYLKSFRTKVRTELG” stands -0.269.
